Test results as given in IntAct's records for PubMed 24325460.

B1: Isocitrate dehydrogenase [NADP] (Bacillus subtilis), P39126 (parent)
chain: MAQGEKITVSNGVLNVPNNPIIPFIEGDGTGPDIWNAASKVLEAAVEKAYKGEKKITWKEVYAGEKAYNKTGEWLPAETLDVIREYFIAIKGPLTTPVGGGIRSLNVALRQELDLFVCLRPVRYFTGVPSPVKRPEDTDMVIFRENTEDIYAGIEYAKGSEEVQKLISFLQNELNVNKIRFPETSGIGIKPVSEEGTSRLVRAAIDYAIEHGRKSVTLVHKGNIMKFTEGAFKNWGYELAEKEYGDKVFTWAQYDRIAEEQGKDAANKAQSEAEAAGKIIIKDSIADIFLQQILTRPNEFDVVATMNLNGDYISDALAAQVGGIGIAPGANINYETGHAIFEATHGTAPKYAGLDKVNPSSVILSGVLLLEHLGWNEAADLVIKSMEKTIASKVVTYDFARLMDGATEVKCSEFGEELIKNMD
partner: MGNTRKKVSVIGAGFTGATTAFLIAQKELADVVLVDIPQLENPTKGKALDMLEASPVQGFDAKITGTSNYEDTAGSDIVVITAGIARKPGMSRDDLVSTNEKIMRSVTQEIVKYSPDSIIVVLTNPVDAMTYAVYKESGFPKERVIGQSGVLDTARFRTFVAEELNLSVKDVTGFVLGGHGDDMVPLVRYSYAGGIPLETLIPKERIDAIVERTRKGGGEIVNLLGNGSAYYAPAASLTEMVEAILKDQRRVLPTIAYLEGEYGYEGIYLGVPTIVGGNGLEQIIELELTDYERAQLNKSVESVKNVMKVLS

Variants of: B1
Conditions: with mdh_bacsu mdh

effect of a mutation on the interaction | Variant
increasing interaction | S104P
